Reference: patent US20170114338

“Anthrax lethal factor (Product #169, List Biological Laboratories, Inc)” was tested, and the Substrate RFUs after 5 hrs digest, LF 10 pg/ml in 1:10 diluted plasma (LBL 10097) was 224 RFU, the Substrate RFUs after 5 hrs digest, LF 20 pg/ml in 1:10 diluted plasma (LBL 10097) was 222 RFU and the Substrate RFUs after 5 hrs digest, LF 50 pg/ml in 1:10 diluted plasma (LBL 10097) was 249 RFU. For the same substance, the Substrate RFUs after 5 hrs digest, LF 100 pg/ml in 1:10 diluted plasma (LBL 10097) was 242 RFU, the Substrate RFUs after 5 hrs digest, LF 200 pg/ml in 1:10 diluted plasma (LBL 10097) was 256 RFU and the Substrate RFUs after 5 hrs digest, LF 500 pg/ml in 1:10 diluted plasma (LBL 10097) was 301 RFU. It also gave a Substrate RFUs after 5 hrs digest, LF 1000 pg/ml in 1:10 diluted plasma (LBL 10097) of 399 RFU, a Substrate RFUs after 24 hrs digest, LF 10 pg/ml in 1:10 diluted plasma (LBL 10097) of 227 RFU and a Substrate RFUs after 24 hrs digest, LF 20 pg/ml in 1:10 diluted plasma (LBL 10097) of 223 RFU. The Substrate RFUs after 24 hrs digest, LF 50 pg/ml in 1:10 diluted plasma (LBL 10097) was 245 RFU, the Substrate RFUs after 24 hrs digest, LF 100 pg/ml in 1:10 diluted plasma (LBL 10097) was 258 RFU and the Substrate RFUs after 24 hrs digest, LF 200 pg/ml in 1:10 diluted plasma (LBL 10097) was 286 RFU. For the same substance, the Substrate RFUs after 24 hrs digest, LF 500 pg/ml in 1:10 diluted plasma (LBL 10097) was 379 RFU, the Substrate RFUs after 24 hrs digest, LF 1000 pg/ml in 1:10 diluted plasma (LBL 10097) was 559 RFU and the Peak area Average, 2 hour digest, LF 5 pg/ml plasma (LBL 10081) was 9150 peak area. The Peak area Average, 2 hour digest, LF 10 pg/ml plasma (LBL 10081) was 10300 peak area, the Peak area Average, 2 hour digest, LF 20 pg/ml plasma (LBL 10081) was 15900 peak area and the Peak area Average, 2 hour digest, LF 50 pg/ml plasma (LBL 10081) was 33700 peak area. It also gave a Peak area Average, 3.5 hour digest, LF 5 pg/ml plasma (LBL 10081) of 12300 peak area, a Peak area Average, 3.5 hour digest, LF 10 pg/ml plasma (LBL 10081) of 15900 peak area and a Peak area Average, 3.5 hour digest, LF 20 pg/ml plasma (LBL 10081) of 24200 peak area. The Peak area Average, 3.5 hour digest, LF 50 pg/ml plasma (LBL 10081) was 49100 peak area, the Peak area Average, 5 hour digest, LF 5 pg/ml plasma (LBL 10081) was 15000 peak area and the Peak area Average, 5 hour digest, LF 10 pg/ml plasma (LBL 10081) was 22300 peak area. It also gave a Peak area Average, 5 hour digest, LF 20 pg/ml plasma (LBL 10081) of 32900 peak area, a Peak area Average, 5 hour digest, LF 50 pg/ml plasma (LBL 10081) of 66700 peak area and a Peak area Average, overnight digest (RT), LF 5 pg/ml plasma (LBL 10081) of 26900 peak area. For the same substance, the Peak area Average, overnight digest (RT), LF 10 pg/ml plasma (LBL 10081) was 36200 peak area, the Peak area Average, overnight digest (RT), LF 20 pg/ml plasma (LBL 10081) was 57900 peak area and the Peak area Average, overnight digest (RT), LF 50 pg/ml plasma (LBL 10081) was 130000 peak area. The Peak area, 2 hour digest, LF 5 pg/ml plasma, rep 1 (LBL 10081) was 9410 peak area, the Peak area, 2 hour digest, LF 5 pg/ml plasma, rep 2 (LBL 10081) was 8890 peak area and the Peak area, 2 hour digest, LF 10 pg/ml plasma, rep 1 (LBL 10081) was 10700 peak area. It also gave a Peak area, 2 hour digest, LF 10 pg/ml plasma, rep 2 (LBL 10081) of 9970 peak area, a Peak area, 2 hour digest, LF 20 pg/ml plasma, rep 1 (LBL 10081) of 16900 peak area and a Peak area, 2 hour digest, LF 20 pg/ml plasma, rep 2 (LBL 10081) of 14900 peak area. The Peak area, 2 hour digest, LF 50 pg/ml plasma, rep 1 (LBL 10081) was 33700 peak area, the Peak area, 2 hour digest, LF 50 pg/ml plasma, rep 2 (LBL 10081) was 33700 peak area and the Peak area, 3.5 hour digest, LF 5 pg/ml plasma, rep 1 (LBL 10081) was 11500 peak area. It also gave a Peak area, 3.5 hour digest, LF 5 pg/ml plasma, rep 2 (LBL 10081) of 13200 peak area, a Peak area, 3.5 hour digest, LF 10 pg/ml plasma, rep 1 (LBL 10081) of 16500 peak area and a Peak area, 3.5 hour digest, LF 10 pg/ml plasma, rep 2 (LBL 10081) of 15300 peak area. For the same substance, the Peak area, 3.5 hour digest, LF 20 pg/ml plasma, rep 1 (LBL 10081) was 24000 peak area, the Peak area, 3.5 hour digest, LF 20 pg/ml plasma, rep 2 (LBL 10081) was 24300 peak area and the Peak area, 3.5 hour digest, LF 50 pg/ml plasma, rep 1 (LBL 10081) was 49700 peak area. It also gave a Peak area, 3.5 hour digest, LF 50 pg/ml plasma, rep 2 (LBL 10081) of 48400 peak area, a Peak area, 5 hour digest, LF 5 pg/ml plasma, rep 1 (LBL 10081) of 14800 peak area and a Peak area, 5 hour digest, LF 5 pg/ml plasma, rep 2 (LBL 10081) of 15100 peak area. The Peak area, 5 hour digest, LF 10 pg/ml plasma, rep 1 (LBL 10081) was 22200 peak area, the Peak area, 5 hour digest, LF 10 pg/ml plasma, rep 2 (LBL 10081) was 22400 peak area and the Peak area, 5 hour digest, LF 20 pg/ml plasma, rep 1 (LBL 10081) was 31600 peak area. For the same substance, the Peak area, 5 hour digest, LF 20 pg/ml plasma, rep 2 (LBL 10081) was 34200 peak area, the Peak area, 5 hour digest, LF 50 pg/ml plasma, rep 1 (LBL 10081) was 67200 peak area and the Peak area, 5 hour digest, LF 50 pg/ml plasma, rep 2 (LBL 10081) was 66100 peak area. For the same substance, the Peak area, overnight digest (RT), LF 5 pg/ml plasma, rep 1 (LBL 10081) was 28500 peak area, the Peak area, overnight digest (RT), LF 5 pg/ml plasma, rep 2 (LBL 10081) was 25300 peak area and the Peak area, overnight digest (RT), LF 10 pg/ml plasma, rep 1 (LBL 10081) was 36500 peak area. For the same substance, the Peak area, overnight digest (RT), LF 10 pg/ml plasma, rep 2 (LBL 10081) was 36000 peak area, the Peak area, overnight digest (RT), LF 20 pg/ml plasma, rep 1 (LBL 10081) was 58200 peak area and the Peak area, overnight digest (RT), LF 20 pg/ml plasma, rep 2 (LBL 10081) was 57600 peak area. The Peak area, overnight digest (RT), LF 50 pg/ml plasma, rep 1 (LBL 10081) was 136000 peak area, the Peak area, overnight digest (RT), LF 50 pg/ml plasma, rep 2 (LBL 10081) was 124000 peak area and the Slope (Peak Area/pg LF), 2 hr digest (Peak Area/pg LF) (LBL 10081) was 553. The Slope (Peak Area/pg LF), 3.5 hr digest (Peak Area/pg LF) (LBL 10081) was 811, the Slope (Peak Area/pg LF), 5 hr digest (Peak Area/pg LF) (LBL 10081) was 1130 and the Slope (Peak Area/pg LF), Overnight digest (RT) (Peak Area/pg LF) (LBL 10081) was 2280. For the same substance, the Substrate RFUs after 5 hrs digest, LF 10 pg/ml in 1:10 diluted plasma (LBL 10081) was 140 RFU, the Substrate RFUs after 5 hrs digest, LF 20 pg/ml in 1:10 diluted plasma (LBL 10081) was 137 RFU and the Substrate RFUs after 5 hrs digest, LF 50 pg/ml in 1:10 diluted plasma (LBL 10081) was 137 RFU. For the same substance, the Substrate RFUs after 5 hrs digest, LF 100 pg/ml in 1:10 diluted plasma (LBL 10081) was 141 RFU, the Substrate RFUs after 5 hrs digest, LF 200 pg/ml in 1:10 diluted plasma (LBL 10081) was 155 RFU and the Substrate RFUs after 5 hrs digest, LF 500 pg/ml in 1:10 diluted plasma (LBL 10081) was 190 RFU. It also gave a Substrate RFUs after 5 hrs digest, LF 1000 pg/ml in 1:10 diluted plasma (LBL 10081) of 256 RFU, a Substrate RFUs after 24 hrs digest, LF 10 pg/ml in 1:10 diluted plasma (LBL 10081) of 147 RFU and a Substrate RFUs after 24 hrs digest, LF 20 pg/ml in 1:10 diluted plasma (LBL 10081) of 149 RFU. For the same substance, the Substrate RFUs after 24 hrs digest, LF 50 pg/ml in 1:10 diluted plasma (LBL 10081) was 152 RFU, the Substrate RFUs after 24 hrs digest, LF 100 pg/ml in 1:10 diluted plasma (LBL 10081) was 161 RFU and the Substrate RFUs after 24 hrs digest, LF 200 pg/ml in 1:10 diluted plasma (LBL 10081) was 186 RFU. It also gave a Substrate RFUs after 24 hrs digest, LF 500 pg/ml in 1:10 diluted plasma (LBL 10081) of 248 RFU, a Substrate RFUs after 24 hrs digest, LF 1000 pg/ml in 1:10 diluted plasma (LBL 10081) of 354 RFU and a Substrate RFUs, 1 hour, LF 10 pg/ml (LBL 10081) of 89 RFU. The Substrate RFUs, 1 hour, LF 20 pg/ml (LBL 10081) was 87 RFU, the Substrate RFUs, 1 hour, LF 50 pg/ml (LBL 10081) was 88 RFU and the Substrate RFUs, 1 hour, LF 100 pg/ml (LBL 10081) was 88 RFU. It also gave a Substrate RFUs, 1 hour, LF 200 pg/ml (LBL 10081) of 92 RFU, a Substrate RFUs, 1 hour, LF 500 pg/ml (LBL 10081) of 97 RFU and a Substrate RFUs, 1 hour, LF 1000 pg/ml (LBL 10081) of 114 RFU. For the same substance, the Substrate RFUs, 2 hours, LF 10 pg/ml (LBL 10081) was 94 RFU, the Substrate RFUs, 2 hours, LF 20 pg/ml (LBL 10081) was 93 RFU and the Substrate RFUs, 2 hours, LF 50 pg/ml (LBL 10081) was 95 RFU. For the same substance, the Substrate RFUs, 2 hours, LF 100 pg/ml (LBL 10081) was 96 RFU, the Substrate RFUs, 2 hours, LF 200 pg/ml (LBL 10081) was 101 RFU and the Substrate RFUs, 2 hours, LF 500 pg/ml (LBL 10081) was 116 RFU. It also gave a Substrate RFUs, 2 hours, LF 1000 pg/ml (LBL 10081) of 148 RFU, a Substrate RFUs, 3 hours, LF 10 pg/ml (LBL 10081) of 98 RFU and a Substrate RFUs, 3 hours, LF 20 pg/ml (LBL 10081) of 99 RFU. For the same substance, the Substrate RFUs, 3 hours, LF 50 pg/ml (LBL 10081) was 100 RFU, the Substrate RFUs, 3 hours, LF 100 pg/ml (LBL 10081) was 103 RFU and the Substrate RFUs, 3 hours, LF 200 pg/ml (LBL 10081) was 111 RFU. The Substrate RFUs, 3 hours, LF 500 pg/ml (LBL 10081) was 131 RFU, the Substrate RFUs, 3 hours, LF 1000 pg/ml (LBL 10081) was 177 RFU and the Substrate RFUs, 4 hours, LF 10 pg/ml (LBL 10081) was 100 RFU. The Substrate RFUs, 4 hours, LF 20 pg/ml (LBL 10081) was 99 RFU, the Substrate RFUs, 4 hours, LF 50 pg/ml (LBL 10081) was 102 RFU and the Substrate RFUs, 4 hours, LF 100 pg/ml (LBL 10081) was 105 RFU. For the same substance, the Substrate RFUs, 4 hours, LF 200 pg/ml (LBL 10081) was 115 RFU, the Substrate RFUs, 4 hours, LF 500 pg/ml (LBL 10081) was 142 RFU and the Substrate RFUs, 4 hours, LF 1000 pg/ml (LBL 10081) was 202 RFU. The Substrate RFUs, 5 hours, LF 10 pg/ml (LBL 10081) was 103 RFU, the Substrate RFUs, 5 hours, LF 20 pg/ml (LBL 10081) was 102 RFU and the Substrate RFUs, 5 hours, LF 50 pg/ml (LBL 10081) was 106 RFU. The Substrate RFUs, 5 hours, LF 100 pg/ml (LBL 10081) was 111 RFU, the Substrate RFUs, 5 hours, LF 200 pg/ml (LBL 10081) was 125 RFU and the Substrate RFUs, 5 hours, LF 500 pg/ml (LBL 10081) was 157 RFU. For the same substance, the Substrate RFUs, 5 hours, LF 1000 pg/ml (LBL 10081) was 224 RFU.
